Measured values from patent publication US20260234255A1 (Genmab, published 2026).

T1: rhesus monkey (Macaca mulatta) CD30 (rhesus monkey, UniProt P28908 19-595 (human entry))
T1 construct: also called mmCD30
T1 chain: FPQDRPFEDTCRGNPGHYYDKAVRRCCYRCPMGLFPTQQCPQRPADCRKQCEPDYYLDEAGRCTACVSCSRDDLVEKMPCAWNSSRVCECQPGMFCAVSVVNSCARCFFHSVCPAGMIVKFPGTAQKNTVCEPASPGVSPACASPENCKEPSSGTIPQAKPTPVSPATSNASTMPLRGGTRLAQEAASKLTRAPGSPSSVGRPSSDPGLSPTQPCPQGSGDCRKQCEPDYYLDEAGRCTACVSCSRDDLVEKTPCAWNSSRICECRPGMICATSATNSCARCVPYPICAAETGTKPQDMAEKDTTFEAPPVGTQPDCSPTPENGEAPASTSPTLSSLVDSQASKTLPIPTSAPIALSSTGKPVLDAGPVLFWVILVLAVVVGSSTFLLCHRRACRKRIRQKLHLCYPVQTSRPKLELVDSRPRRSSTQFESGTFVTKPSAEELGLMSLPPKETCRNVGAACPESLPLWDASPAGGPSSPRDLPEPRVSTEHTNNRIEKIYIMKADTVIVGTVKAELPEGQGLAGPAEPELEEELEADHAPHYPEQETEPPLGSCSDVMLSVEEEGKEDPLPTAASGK

T2: human CD30 (human, UniProt P28908 19-595)
T2 construct: The same molecule is used for CD30 on HL/ALCL/NHL cell lines; also called huCD30; TNFRSF8
T2 sequence: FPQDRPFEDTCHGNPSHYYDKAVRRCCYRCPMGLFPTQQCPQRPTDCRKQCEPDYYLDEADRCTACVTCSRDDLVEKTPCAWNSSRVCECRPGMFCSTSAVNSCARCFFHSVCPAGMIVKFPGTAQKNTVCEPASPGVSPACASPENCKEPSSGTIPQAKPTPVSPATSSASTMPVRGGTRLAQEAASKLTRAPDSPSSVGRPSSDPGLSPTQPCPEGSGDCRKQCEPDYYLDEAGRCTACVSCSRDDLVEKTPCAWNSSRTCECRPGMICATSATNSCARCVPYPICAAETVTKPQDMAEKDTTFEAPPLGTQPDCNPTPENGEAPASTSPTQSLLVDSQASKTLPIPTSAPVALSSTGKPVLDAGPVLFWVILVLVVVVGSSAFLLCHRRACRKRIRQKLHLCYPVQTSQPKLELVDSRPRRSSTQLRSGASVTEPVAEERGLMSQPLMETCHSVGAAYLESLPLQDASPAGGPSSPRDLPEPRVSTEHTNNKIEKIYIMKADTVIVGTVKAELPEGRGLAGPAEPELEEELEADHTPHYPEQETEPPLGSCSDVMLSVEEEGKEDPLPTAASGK


Legend:
[1] = target: T1, rhesus monkey (Macaca mulatta) CD30; assay: flow cytometry, Expi293F cells transfected with rhesus monkey CD30
Protocol: Cells (3×10⁴ cells/well) were incubated in polystyrene 96-well round-bottom plates (Greiner bio-one, cat. no. 650180) with serial dilutions of antibodies (ranging from 0.005 to 10 μg/mL in 3-fold dilution steps) in 100 μL staining buffer at 4° C. for 30 min. Experiments were performed in technical duplicate. After washing twice in staining buffer, cells were incubated in 50 μL secondary antibody at 4° C. for 30 min. As a secondary antibody, R-PE-conjugated goat-anti-human IgG (Jackson ImmunoResearch, UK; cat. no. 109⁻¹¹⁶-098) diluted 1:400 in staining buffer was used. Cells were washed twice in staining buffer, resuspended in 30 μL staining buffer containing 0.4% EDTA and analyzed on an iQue Screener (Intellicyt Corporation, USA). Binding curves were analyzed using non-linear regression (sigmoidal dose-response with variable slope) using GraphPad Prism V9.0.0 software (GraphPad Software, San Diego, CA, USA).

[2] = target: T2, human CD30; assay: flow cytometry, KI-JK cells, experiment N = 2
[3] = target: T2, human CD30; assay: flow cytometry, L-428 cells (HL), range of 2 tests
Protocol: (§1) Cells (3×10⁴ cells/well) were incubated in polystyrene 96-well round-bottom plates (Greiner bio-one, cat. no. 650180) with serial dilutions of antibodies (range 0.0046 to 10 μg/mL in 3-fold dilution steps) in 50 μL staining buffer at 4° C. for 30 min. After washing twice in staining buffer, cells were incubated with 50 μL secondary antibody at 4° C. for 30 min. […] Next, cells were washed twice in staining buffer, resuspended in 100 μL staining buffer supplemented with TO-PRO-3 iodide (Thermo Fisher Scientific; cat. no. T3605; 1:8000 dilution) and analyzed on a FACSCelesta flow cytometer (BD Biosciences, USA). Live cells were gated based on FSC/SSC and absence of TOPRO-3 staining. Binding curves were analyzed by non-linear regression of log-transformed data (sigmoidal dose-response with variable slope, four parameters) using GraphPad Prism V7.02 software (GraphPad Software, San Diego, CA, USA).

[4] = target: T2, human CD30; assay: flow cytometry, SUP-M2 cells (ALCL), average of 3 tests
Protocol: as §1

[5] = target: T1, rhesus monkey (Macaca mulatta) CD30; assay: flow cytometry, HEK293 cells; panel title 'HEK293 rhesus CD30'
Protocol: Cells (3×10⁴ cells/well) were incubated in polystyrene 96-well round-bottom plates (Thermo Scientific, cat. no. 163320) with serial dilutions of antibodies (ranging from 0.0002 to 50 μg/mL in 4-fold dilution steps) in 50 μL staining buffer at 4° C. for 30 min. Experiments were performed in technical duplicate. After washing twice in staining buffer, cells were incubated in 50 μL secondary antibody at 4° C. for 30 min. As a secondary antibody, R-PE-conjugated goat-anti-human IgG (Jackson ImmunoResearch, UK; cat. no. 109⁻¹¹⁶-098) diluted 1:200 in staining buffer was used. Cells were washed twice in staining buffer, resuspended in 30 μL staining buffer containing 0.4% EDTA and the ToPro-3 viability marker (Invitrogen, cat. no. T3605) diluted 1:10,000. Cells were analyzed on an iQue Screener (Intellicyt Corporation, USA). Binding curves were analyzed using non-linear regression (sigmoidal dose-response with variable slope) using GraphPad Prism V9.0.0 software (GraphPad Software, San Diego, CA, USA).

[6] = target: T2, human CD30; assay: flow cytometry, JVM-2 cells (MCL), average of 3 tests
Protocol: as §1

[7] = target: T2, human CD30; assay: flow cytometry, KM-H2 cells (HL), range of 3 tests
Protocol: as §1

[8] = target: T2, human CD30; assay: cell-based or functional assay

Binder	EC50 (read off the curve) [1] [µg/mL]	EC50 [2] [µg/mL]	EC50 [3] [µg/mL]	EC50 [4] [µg/mL]	EC50 (read off the curve) [5] [µg/mL]	EC50 [6] [µg/mL]	EC50 [7] [µg/mL]	T-cell mediated cytotoxicity of KI-JK cells, average IC50 [8] [µg/mL]	T-cell mediated cytotoxicity of L-428 cells, average IC50 [8] [µg/mL]
bsG1-huCD3-FEALxCD30-MDX060-FEAR (bispecific antibody, human IgG1, kappa, lambda, also called bsG1-huCD3xCD30-MDX060) heavy 1: not shown light 1: not shown heavy 2: QVQLQQWGAGLLKPSETLSLTCAVYGGSFSAYYWSWIRQPPGKGLEWIGDINHGGGTNYNPSLKSRVTISVDTSKNQFSLKLNSVTAADTAVYYCASLTAYWGQGSLVTVSSASTKGPSVFPLAPSSKSTSGGTAALGCLVKDYFPEPVTVSWNSGALTSGVHTFPAVLQSSGLYSLSSVVTVPSSSLGTQTYICNVNHKPSNTKVDKRVEPKSCDKTHTCPPCPAPEFEGGPSVFLFPPKPKDTLMISRTPEVTCVVVAVSHEDPEVKFNWYVDGVEVHNAKTKPREEQYNSTYRVVSVLTVLHQDWLNGKEYKCKVSNKALPAPIEKTISKAKGQPREPQVYTLPPSREEMTKNQVSLTCLVKGFYPSDIAVEWESNGQPENNYKTTPPVLDSDGSFFLYSRLTVDKSRWQQGNVFSCSVMHEALHNHYTQKSLSLSPG light 2: DIQMTQSPTSLSASVGDRVTITCRASQGISSWLTWYQQKPEKAPKSLIYAASSLQSGVPSRFSGSGSGTDFTLTISSLQPEDFATYYCQQYDSYPITFGQGTRLEIKRTVAAPSVFIFPPSDEQLKSGTASVVCLLNNFYPREAKVQWKVDNALQSGNSQESVTEQDSKDSTYSLSSTLTLSKADYEKHKVYACEVTHQGLSSPVTKSFNRGEC	~0.2	0.0735							
bsG1-huCD3-FEALxCD30-MDX060-FERR (bispecific antibody, human IgG1, kappa, lambda, Bispecific IgG1 made by controlled Fab-arm exchange; also called bsIgG1-huCD3-FEALxCD30-MDX060-FERR; bsG1-huCD3×CD30-MDX060) heavy 1: not shown light 1: not shown heavy 2: QVQLQQWGAGLLKPSETLSLTCAVYGGSFSAYYWSWIRQPPGKGLEWIGDINHGGGTNYNPSLKSRVTISVDTSKNQFSLKLNSVTAADTAVYYCASLTAYWGQGSLVTVSSASTKGPSVFPLAPSSKSTSGGTAALGCLVKDYFPEPVTVSWNSGALTSGVHTFPAVLQSSGLYSLSSVVTVPSSSLGTQTYICNVNHKPSNTKVDKRVEPKSCDKTHTCPPCPAPEFERGPSVFLFPPKPKDTLMISRTPEVTCVVVDVSHEDPEVKFNWYVDGVEVHNAKTKPREEQYNSTYRVVSVLTVLHQDWLNGKEYKCKVSNKALPAPIEKTISKAKGQPREPQVYTLPPSREEMTKNQVSLTCLVKGFYPSDIAVEWESNGQPENNYKTTPPVLDSDGSFFLYSRLTVDKSRWQQGNVFSCSVMHEALHNHYTQKSLSLSPG light 2: DIQMTQSPTSLSASVGDRVTITCRASQGISSWLTWYQQKPEKAPKSLIYAASSLQSGVPSRFSGSGSGTDFTLTISSLQPEDFATYYCQQYDSYPITFGQGTRLEIKRTVAAPSVFIFPPSDEQLKSGTASVVCLLNNFYPREAKVQWKVDNALQSGNSQESVTEQDSKDSTYSLSSTLTLSKADYEKHKVYACEVTHQGLSSPVTKSFNRGEC			0.174	0.167	~0.07	0.126	0.141 to 0.182	0.0015	0.002
